In patent EP3636320A1 (Numab Therapeutics AG, dated 2020):
Numbering of substitutions follows the chain as printed. Blank lines part the entries; values can stand above or below the binder they belong to.

Target: human CD137 expressed on Jurkat cells (human, UniProt Q07011 24-255)
Assay: cell-based or functional assay

IC50 (ng/ml), activation of NF-kB reporter gene, HCC827 +IFNg, 6 h, with HSA: 6.44 ng/mL
IC50 (ng/ml), activation of NF-kB reporter gene, HCC827 +IFNg, 24 h, with HSA: 4.67 ng/mL
B1: PRO1480 (other)
chain: DIQMTQSPASLSASVGDRVTITCQASQSIGTYLAWYQQKPGKPPKLLIYRAFILASGVPSRFSGSGSGTDFTLTISSLQPEDFATYYCQSNFYSDSTTIGPNAFGTGTKVTVLGGGGGSEVQLVESGGGLVQPGGSLRLSCAASGFSFSANYYPCWVRQAPGKGLEWIGCIYGGSSDITYDANWTKGRFTISRDNSKNTVYLQMNSLRAEDTAVYYCARSAWYSGWGGDLWGQGTLVTVSSGGGGSGGGGSGGGGSGGGGSIQMTQSPSSLSASVGDRVTITCQASQSISNRLAWYQQKPGKAPKLLIYSASTLASGVPSRFSGSGSGTDFTLTISSLQPEDFATYYCQSTYYGNDGNAFGTGTKVTVLGGGGGSEVQLVESGGGLVQPGGSLRLSCAASGFSFNSDYWIYWVRQAPGKGLEWIASIYGGSSGNTQYASWAQGRFTISRDNSKNTVYLQMNSLRAEDTAVYFCARGYVDYGGATDLWGQGTLVTVSSGGGGSGGGGSIQMTQSPSSLSASVGDRVTITCQSSESVYSNNQLSWYQQKPGQPPKLLIYDASDLASGVPSRFSGSGSGTDFTLTISSLQPEDFATYYCAGGFSSSSDTAFGGGTKLTVLGGGGGSGGGGSGGGGSGGGGSEVQLVESGGGLVQPGGSLRLSCAASGFSLSSNAMGWVRQAPGKGLEYIGIISVGGFTYYASWAKGRFTISRDNSKNTVYLQMNSLRAEDTATYFCARDRHGGDSSGAFYLWGQGTLVTVSS

IC50 (ng/ml), activation of NF-kB reporter gene, HCC827 +IFNg, 6 h, with HSA: 7.22 ng/mL
IC50 (ng/ml), activation of NF-kB reporter gene, HCC827 +IFNg, 24 h, with HSA: 5.51 ng/mL
B2: PRO1481 (other)
chain: B1 chain with V121S, Y216F, Q233P, I262F, M264L, A303P
